The values that follow come from article PMC12102759 (2025).

B1: NOTCH4 peptide 1606-1621 (Neurogenic locus notch homolog protein 4), 16-mer library wild type / NSP9 (ORF1ab Nsp9, residues 4141-4253) (parent complex)
chain 1: QGAWLGAPEPWEPLLD
chain 2: NNELSPVALRQMSCAAGTTQTACTDDNALAYYNTTKGGRFVLALLSDLQDLKWARFPKSDGTGTIYTELEPPCRFVTDTPKGPKVKYLYFIKGLNNLNRGMVLGSLAATVRLQ
B2: ICA1L peptide 451-466 (Islet cell autoantigen 1-like protein), 16-mer library wild type / NSP16 (ORF1ab Nsp16, residues 6799-7088) (parent complex)
chain 1: QDMSAWFNLFADLDPL
chain 2: SSQAWQPGVAMPNLYKMQRMLLEKCDLQNYGDSATLPKGIMMNVAKYTQLCQYLNTLTLAVPYNMRVIHFGAGSDKGVAPGTAVLRQWLPTGTLLVDSDLNDFVSDADSTLIGDCATVHTANKWDLIISDMYDPKTKNVTKENDSKEGFFTYICGFIQQKLALGGSVAIKITEHSWNADLYKLMGHFAWWTAFVTNVNASSSEAFLIGCNYLGKPREQIDGYVMHANYIFWRNTNPIQLSSYSLFDMSKFPLKLRGTAVMSLKEGQINDMILSLLSKGRLIIRENNRVVI

The first test covers variants of B1. The test can be described thus: bait immobilised on MaxiSorp plates (10 µg), library pre-cleared on GST, 2 h binding at 4 °C, five washes; one round per day, days 1-4; value from days 2 and 3.
As for chain 1 QGAWLGAPEPWNPLLD, the screen value is 0.00209 average fractional NGS count over selection days 2 and 3 (reads of this peptide / all reads for the bait, averaged over …. On the same count and under the same terms, to chain 1 QGAWLGAPEPWVPLLD belongs 0.00994 average fractional NGS count over selection days 2 and 3 (reads of this peptide / all reads for the bait, averaged over …; to chain 1 QGAWLGAPEPWKPLLD, 0.00114 average fractional NGS count over selection days 2 and 3 (reads of this peptide / all reads for the bait, averaged over …. As to chain 1 QGTWLGAPEPWEPLLD, the screen value is 0.00113 average fractional NGS count over selection days 2 and 3 (reads of this peptide / all reads for the bait, averaged over …. Same read-out and setting: the result for chain 1 QGQWLGAPEPWEPLLD reads 0.000713 average fractional NGS count over selection days 2 and 3 (reads of this peptide / all reads for the bait, averaged over …; that for chain 1 QGIWLGAPEPWEPLLD, 0.00198 average fractional NGS count over selection days 2 and 3 (reads of this peptide / all reads for the bait, averaged over ….

Turning to chain 1 QGWWLGAPEPWEPLLD, the screen value was 0.000101 average fractional NGS count over selection days 2 and 3 (reads of this peptide / all reads for the bait, averaged over …. As for chain 1 QGAWLGAPNPWEPLLD, the screen value is 0.000953 average fractional NGS count over selection days 2 and 3 (reads of this peptide / all reads for the bait, averaged over …. For chain 1 QGAWLGAPSPWEPLLD, the screen value is 0.00294 average fractional NGS count over selection days 2 and 3 (reads of this peptide / all reads for the bait, averaged over …. In the case of chain 1 QGAWLGAPPPWEPLLD, the screen value is 0.00127 average fractional NGS count over selection days 2 and 3 (reads of this peptide / all reads for the bait, averaged over …. Still for that read-out and setting: to chain 1 QGAWLGAPQPWEPLLD belongs 0.000696 average fractional NGS count over selection days 2 and 3 (reads of this peptide / all reads for the bait, averaged over …; to chain 1 QGAWLGAPFPWEPLLD, 0.000135 average fractional NGS count over selection days 2 and 3 (reads of this peptide / all reads for the bait, averaged over …; to chain 1 QGAWLGAPMPWEPLLD, 0.00679 average fractional NGS count over selection days 2 and 3 (reads of this peptide / all reads for the bait, averaged over …. As to chain 1 QGAWLGAPEPVEPLLD, the screen value is 0.000951 average fractional NGS count over selection days 2 and 3 (reads of this peptide / all reads for the bait, averaged over …. chain 1 QGAWLGAPEPFEPLLD: the screen value was 0.0024 average fractional NGS count over selection days 2 and 3 (reads of this peptide / all reads for the bait, averaged over …. Still for that read-out and setting: the result for chain 1 QGAWLGAPEPQEPLLD reads 0.00182 average fractional NGS count over selection days 2 and 3 (reads of this peptide / all reads for the bait, averaged over …; that for chain 1 QGAWLGAPEPPEPLLD, 0.0013 average fractional NGS count over selection days 2 and 3 (reads of this peptide / all reads for the bait, averaged over …; that for chain 1 QGAWLGAPEPAEPLLD, 0.00423 average fractional NGS count over selection days 2 and 3 (reads of this peptide / all reads for the bait, averaged over …. Same read-out and setting: to chain 1 QGAWLGAPEPGEPLLD belongs 0.0061 average fractional NGS count over selection days 2 and 3 (reads of this peptide / all reads for the bait, averaged over ….

As for chain 1 QGAWLGAPEPWENLLD, the screen value was 0.000298 average fractional NGS count over selection days 2 and 3 (reads of this peptide / all reads for the bait, averaged over …. Take chain 1 QGAWLGAPEPWEDLLD: the screen value is 0.00132 average fractional NGS count over selection days 2 and 3 (reads of this peptide / all reads for the bait, averaged over …. The same measure, in the same setting: the result for chain 1 QGAWLGAPEPWEMLLD reads 0.00222 average fractional NGS count over selection days 2 and 3 (reads of this peptide / all reads for the bait, averaged over …; that for chain 1 QGAWLGAPEPWEFLLD, 0.0013 average fractional NGS count over selection days 2 and 3 (reads of this peptide / all reads for the bait, averaged over ….

chain 1 QGAWLGAPEPWERLLD: the screen value is 0.00106 average fractional NGS count over selection days 2 and 3 (reads of this peptide / all reads for the bait, averaged over …. For the variant chain 1 QGAWLGAPEPWETLLD, the screen value is 0.000368 average fractional NGS count over selection days 2 and 3 (reads of this peptide / all reads for the bait, averaged over …. In the case of chain 1 QGAWLGAPEPWESLLD, the screen value is 0.000244 average fractional NGS count over selection days 2 and 3 (reads of this peptide / all reads for the bait, averaged over ….

In a further test the parent is B2. Described as above.
With chain 1 QDMSAWFNLFADLEPL, the screen value is 0.00108 average fractional NGS count over selection days 2 and 3 (reads of this peptide / all reads for the bait, averaged over …. As for chain 1 QDMSAWFNLFADLPPL, the screen value was 0.000203 average fractional NGS count over selection days 2 and 3 (reads of this peptide / all reads for the bait, averaged over ….

On to chain 1 QDMSTWFNLFADLDPL, for which the screen value was 0.00049 average fractional NGS count over selection days 2 and 3 (reads of this peptide / all reads for the bait, averaged over …. The same measure, in the same setting: the result for chain 1 QDMSAWFNLFADLDPT reads 0.000115 average fractional NGS count over selection days 2 and 3 (reads of this peptide / all reads for the bait, averaged over …; that for chain 1 QDMSAWFNLFADLDPM, 0.0149 average fractional NGS count over selection days 2 and 3 (reads of this peptide / all reads for the bait, averaged over ….

As for chain 1 QDMSAWFNLFADLDPW, the screen value was 0.000423 average fractional NGS count over selection days 2 and 3 (reads of this peptide / all reads for the bait, averaged over …. Regarding chain 1 QDMSAWFNLFADLDPV, the screen value was 0.000224 average fractional NGS count over selection days 2 and 3 (reads of this peptide / all reads for the bait, averaged over …. The same measure, in the same setting: the result for chain 1 QDMSAWFNLFADLDPR reads 0.000401 average fractional NGS count over selection days 2 and 3 (reads of this peptide / all reads for the bait, averaged over …; that for chain 1 QDMSAWFNLFADLDPY, 0.00657 average fractional NGS count over selection days 2 and 3 (reads of this peptide / all reads for the bait, averaged over …; that for chain 1 QDMSAWWNLFADLDPL, 0.000183 average fractional NGS count over selection days 2 and 3 (reads of this peptide / all reads for the bait, averaged over …. Still for that read-out and setting: to chain 1 QDMSAWLNLFADLDPL belongs 0.000815 average fractional NGS count over selection days 2 and 3 (reads of this peptide / all reads for the bait, averaged over …; to chain 1 QSMSAWFNLFADLDPL, 0.000218 average fractional NGS count over selection days 2 and 3 (reads of this peptide / all reads for the bait, averaged over …; to chain 1 QDMSAWFNLFGDLDPL, 9.42e-05 average fractional NGS count over selection days 2 and 3 (reads of this peptide / all reads for the bait, averaged over ….

Regarding chain 1 QDMSAWFNMFADLDPL, the screen value was 0.111 average fractional NGS count over selection days 2 and 3 (reads of this peptide / all reads for the bait, averaged over …. Still for that read-out and setting: the result for chain 1 QDMSAWFNLFADWDPL reads 0.0001 average fractional NGS count over selection days 2 and 3 (reads of this peptide / all reads for the bait, averaged over …; that for chain 1 QDMSAWFNLFADFDPL, 8.42e-05 average fractional NGS count over selection days 2 and 3 (reads of this peptide / all reads for the bait, averaged over …; that for chain 1 QDMSAWFNLFADMDPL, 0.00451 average fractional NGS count over selection days 2 and 3 (reads of this peptide / all reads for the bait, averaged over …. In the case of chain 1 QDMSAWFHLFADLDPL, the screen value is 0.00331 average fractional NGS count over selection days 2 and 3 (reads of this peptide / all reads for the bait, averaged over …. As to chain 1 QDMSAWFGLFADLDPL, the screen value was 0.000503 average fractional NGS count over selection days 2 and 3 (reads of this peptide / all reads for the bait, averaged over …. As for chain 1 QDMSAWFTLFADLDPL, the screen value was 0.000466 average fractional NGS count over selection days 2 and 3 (reads of this peptide / all reads for the bait, averaged over …. Still for that read-out and setting: to chain 1 QDMSAWFNLFADLDTL belongs 0.00148 average fractional NGS count over selection days 2 and 3 (reads of this peptide / all reads for the bait, averaged over ….

chain 1 QDMSAWFNLFADLDGL: the screen value was 0.000662 average fractional NGS count over selection days 2 and 3 (reads of this peptide / all reads for the bait, averaged over …. Take chain 1 QDMSAWFNLFADLDVL: the screen value was 0.000993 average fractional NGS count over selection days 2 and 3 (reads of this peptide / all reads for the bait, averaged over …. For chain 1 QDMSAWFNLFADLDQL, the screen value was 0.000173 average fractional NGS count over selection days 2 and 3 (reads of this peptide / all reads for the bait, averaged over …. Still for that read-out and setting: the result for chain 1 QDMSAWFNLFADLDNL reads 0.000142 average fractional NGS count over selection days 2 and 3 (reads of this peptide / all reads for the bait, averaged over …; that for chain 1 QDMTAWFNLFADLDPL, 0.00139 average fractional NGS count over selection days 2 and 3 (reads of this peptide / all reads for the bait, averaged over …. Take chain 1 QDISAWFNLFADLDPL: the screen value is 0.00221 average fractional NGS count over selection days 2 and 3 (reads of this peptide / all reads for the bait, averaged over ….

For the variant chain 1 QDMSAWFNLFAHLDPL, the screen value is 0.0543 average fractional NGS count over selection days 2 and 3 (reads of this peptide / all reads for the bait, averaged over ….

In the case of chain 1 QDMSAWFNLFAWLDPL, the screen value was 0.00015 average fractional NGS count over selection days 2 and 3 (reads of this peptide / all reads for the bait, averaged over …. With chain 1 QDMSAWFNLFAYLDPL, the screen value is 0.000481 average fractional NGS count over selection days 2 and 3 (reads of this peptide / all reads for the bait, averaged over ….
